Source: paper PMC9838529
Values joined by “and” are separate entries in the source; they are usually repeats but may differ in a detail not shown here. Identical values can stand only once.

How the values were obtained:
[1] = molecular target: monoclonal mouse antibody aE11 (full IgG) (mouse); experiment: SPR; aE11 IgG amine-coupled to a CM5 chip (~7000 RU), monomeric C9 as analyte; Biacore T200, 25 °C; 10 mM HEPES-NaOH pH 7.2, 150 mM NaCl, 1 mM EDTA, 0.005% P20; multi-cycle kinetics; off rate from a simple exponential decay (1:1 binding model); n = 2
monoclonal mouse antibody aE11 (full IgG) (mouse), sequence (heavy, as listed by the source, chain 1 of 2): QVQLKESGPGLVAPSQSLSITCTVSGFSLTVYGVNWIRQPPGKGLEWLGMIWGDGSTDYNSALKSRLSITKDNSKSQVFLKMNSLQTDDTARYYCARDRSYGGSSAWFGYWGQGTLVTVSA
monoclonal mouse antibody aE11 (full IgG) (mouse), sequence (light, as listed by the source, chain 2 of 2): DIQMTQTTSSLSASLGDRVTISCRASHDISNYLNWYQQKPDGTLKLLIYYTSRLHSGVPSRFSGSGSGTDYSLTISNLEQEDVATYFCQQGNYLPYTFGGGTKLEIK

aE11 IgG (mouse) = experiment: SPR; aE11 IgG amine-coupled to a CM5 chip (~7000 RU), monomeric C9 as analyte; Biacore T200, 25 °C; 10 mM HEPES-NaOH pH 7.2, 150 mM NaCl, 1 mM EDTA, 0.005% P20; multi-cycle kinetics; off rate from a simple exponential decay (1:1 model); steady state not reached
aE11 IgG (mouse), sequence (heavy, as listed by the source, chain 1 of 2): as the sequence (heavy, as listed by the source, chain 1 of 2) above
aE11 IgG (mouse), sequence (light, as listed by the source, chain 2 of 2): as the sequence (light, as listed by the source, chain 2 of 2) above

[2] = molecular target: polyC9 (in vitro homo-oligomerised human C9, wild type) (human); experiment: cryo-EM structure; aE11-Fab mixed with polyC9 in stoichiometric quantities; 1 mg/ml in 10 mM HEPES, 50 mM NaCl, pH 7.2; symmetry expansion and focused refinement of three C9 protomers and two Fab variable regions

monomeric human C9, wild type (recombinant), sequence (P02748 22-559): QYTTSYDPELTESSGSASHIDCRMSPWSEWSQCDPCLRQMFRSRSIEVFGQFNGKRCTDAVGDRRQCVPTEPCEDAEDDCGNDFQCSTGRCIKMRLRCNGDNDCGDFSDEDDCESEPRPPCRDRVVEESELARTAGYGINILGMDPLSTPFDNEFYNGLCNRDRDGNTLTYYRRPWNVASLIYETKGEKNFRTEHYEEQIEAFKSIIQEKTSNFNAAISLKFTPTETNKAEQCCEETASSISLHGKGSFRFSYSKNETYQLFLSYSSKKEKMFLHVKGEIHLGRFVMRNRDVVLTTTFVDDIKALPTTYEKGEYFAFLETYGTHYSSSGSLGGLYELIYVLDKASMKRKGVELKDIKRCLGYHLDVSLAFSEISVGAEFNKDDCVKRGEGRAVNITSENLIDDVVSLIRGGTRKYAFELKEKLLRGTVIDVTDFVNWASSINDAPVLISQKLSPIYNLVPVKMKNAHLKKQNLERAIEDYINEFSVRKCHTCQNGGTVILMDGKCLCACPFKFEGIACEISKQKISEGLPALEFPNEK
human complement C9, wild type, monomeric, sequence (P02748 22-559): as above

koff [1] | koff (aE11 IgG (mouse)) [s⁻¹] | Substance | further results
0.000267 s⁻¹ and 0.000353 s⁻¹ | – | human complement C9 F262C/V405C, disulphide-trapped, monomeric (from UniProt P02748 22-559) (natural protein) | –
– | 0.0001 | monomeric human C9 R65Q (from UniProt P02748 22-559) (natural protein) | –
0.000106 s⁻¹ and 6.14e-05 s⁻¹ | – | human complement C9 P72E, monomeric (from UniProt P02748 22-559) (natural protein) | –
0.000214 s⁻¹ and 8.63e-05 s⁻¹ | – | human complement C9 R65Q, monomeric (from UniProt P02748 22-559) (natural protein) | –
– | 0.0001 | monomeric human C9 P72E (from UniProt P02748 22-559) (natural protein) | fold reduction of binding against wild-type monomeric C9 (aE11 IgG (mouse)): 2 fold
– | 0.0001 | monomeric human C9 V68E (from UniProt P02748 22-559) (natural protein) | fold reduction of binding against wild-type monomeric C9 (aE11 IgG (mouse)): 2 fold
– | – | polyC9 (in vitro homo-oligomerised human C9, wild type) (complex) | stoichiometry N [2]: 22
3.11e-05 s⁻¹ and 3.58e-05 s⁻¹ | – | human complement C9 V68E, monomeric (from UniProt P02748 22-559) (natural protein) | –
– | 0.0001 | monomeric human C9, wild type (recombinant) (from UniProt P02748 22-559) (natural protein) | Kd (aE11 IgG (mouse)): 500 to 2000 nM
– | 0.0001 | disulphide-trapped C9 variant (F262C/V405C) (from UniProt P02748 22-559) (natural protein) | –
0.000169 s⁻¹ and 0.000183 s⁻¹ | – | human complement C9, wild type, monomeric (from UniProt P02748 22-559) (natural protein) | –
